According to patent US8343490B2, “Monoclonal antibody SC104 and derivative thereof specifically binding to a sialyltetraosyl carbohydrate as a potential anti-tumor therapeutic agent” (Cephalon Australia Pty Ltd, priority 2004, dated 2013):

Legend:
[1] = Blood group antigen ELISA, Lewis y; format: binding
Procedure: The Lewis ^y hapten and the type I and type II H blood group antigen (Sigma, Poole, Dorset) were dried microtitre plates by overnight incubation at 37° C. Binding of SC104 mab was assayed by ELISA as described above.

SC104 / C14 antigen = test: ELISA for homophilic binding; conditions: FIG. 23
Procedure: ELISA for homophilic binding. Flat flexi 96 well ELISA plates were coated with anti-mouse IgG Fc specific antibody or were coated with 3 μg/ml (100 μl/well) of C14 antigen in PBS and dried down overnight. Plates were washed 3 times with PBS prior to blocking with PBS/1% BSA for 1 hr at room temperature. SC104 antibody (0-100 μg/ml) was added on ice for 1 hr. After washing the plate 3 times in PBS/0.05% tween-20, biotinylated SC104 was added and incubated on ice for 30 minutes. Following a further 3 washes in PBS 0.05% tween-20 anti-mouse SA-HRP (1/1000; Dako, High Wycombe, UK) or goat anti-mouse Fc (1/1000: Dako, High Wycombe, UK) was added as appropriate and left on ice for 30 min. Plates were washed 5 times in PBS/0.05% tween-20 before adding 100 μl/well of TMB substrate and reading at 570 nm.

[2] = test system: frozen normal tissue sections; test: Immunohistochemistry staining of frozen normal tissue sections; format: binding, Human
Procedure: • Immunohistochemistry staining of normal and tumour tissues. Human tissues were obtained from an Inveresk approved supplier. Each tissue used was snap frozen in liquid nitrogen and stored at approximately −70° C. (±10° C.). Cryostat sections were cut and placed onto super frost plus slides. All tissue samples were treated with an antigen marker appropriate for each tissue in order to confirm the preservation of antigens in that tissue. The markers used were keratin for epithelial bearing tissues, CD45 for all lymphoid tissues, and desmin for all cardiac and skeletal muscle. Each tissue was examined from three unrelated donors. The method of staining employed was an indirect, 2 or 3-stage method, using secondary and tertiary antibodies together with an avidin-biotin-peroxidase complex. Endogenous peroxidase activity was blocked using hydrogen peroxide. Endogenous biotin was blocked by treating all tissue sections with a sequence of avidin-biotin. When a tertiary antibody was used, all tissue sections were treated with normal swine serum, which inhibits the binding of tertiary antibodies to the tissues. Validation of the immunohistochemical staining method was determined by staining on positive control tissues, the absence on negative controls and the effect of fixation on staining of control tissues. SC104 was tested against 6 donors of colon tumour and one of heart at concentrations of […]. Tissues were fixed in either acetone or neutral buffered formalin. Two samples of colon tumour stained well enough for use as a positive control and there was no staining in heart. […] The lowest concentration of SC104 giving the maximum staining intensity was 1 μg/ml and this concentration was used for subsequent work. Results

[3] = Normal Tissues: Large intestine
[4] = Normal Tissues: Parotid salivary gland
[5] = Normal Tissues: Small intestine
[6] = Normal Tissues: Urinary Bladder

B1: SC104: mouse IgG1 monoclonal antibody specific for a sialyltetraosyl carbohydrate, raised by immunisation with colorectal cancer cell lines (antibody, V domains shown)
VH: DVQLQESGPDLVKPSQSLSLTCTVTGYSITSGYSWHWVRQFPGNKMEWMGHIHFSGRPTYNPSLSSRISITRDTSKNQFLLQLKFVTTEDTSTYFCARKGKGSDDGLNYWGQGISVTVSS
VL: ENVLTQSPVIMSASPGEKVTMTCSASSSLSYIHWYQQKSRTSPKLWIYDTSNLASGVPGRFSGSGSGNSYSLTISSMEAEDVATYYCFQGSEYPLTFGGGTKLEMT
- Binding to blood group antigens by ELISA: Lewis ^y [1]: 0.057 OD 405 nm
- binding to plates coated with purified glycoprotein expressing SC104 haptens (SC104 / C14 antigen; C14 antigen coated plates): bound stoichiometrically until 10 μg/ml and then bound exponentially beyond this concentration
- homophilic binding in the absence of antigen (SC104 / C14 antigen; plate coated with unlabelled SC104, SC104 biotin detected): did not bind to itself
- Comments on staining ([2]; Normal Tissues: Brain): Small number of scattered glial cells
- Immunoreactivity with frozen tissue sections (binding) ([2]; Normal Tissues: Brain): 1/2
- Comments on staining ([2]; Normal Tissues: Breast): Epithelial cells scattered moderate
- Immunoreactivity with frozen tissue sections (binding) ([2]; Normal Tissues: Breast): 2/3
- Comments on staining ([2]; Normal Tissues: Fallopian tube): Epithelial cells scattered moderate
- Immunoreactivity with frozen tissue sections (binding) ([2]; Normal Tissues: Fallopian tube): 2/3
- Immunoreactivity with frozen tissue sections (binding) ([2]; Normal Tissues: Heart): 0
- Immunoreactivity with frozen tissue sections (binding) ([2]; Normal Tissues: Kidney): 0
- Comments on staining [2, 3]: Epithelial cells, mucous, diffuse
- Immunoreactivity with frozen tissue sections (binding) [2, 3]: 3/3
- Comments on staining ([2]; Normal Tissues: Lung): Alveolar lining cells one donor
- Immunoreactivity with frozen tissue sections (binding) ([2]; Normal Tissues: Lung): 2/3
- Comments on staining ([2]; Normal Tissues: Ovary): Follicular cells scattered and mild
- Immunoreactivity with frozen tissue sections (binding) ([2]; Normal Tissues: Ovary): 3/3
- Comments on staining [2, 4]: Moderate
- Immunoreactivity with frozen tissue sections (binding) [2, 4]: 3/3
- Immunoreactivity with frozen tissue sections (binding) ([2]; Normal Tissues: Placenta): 0
- Comments on staining ([2]; Normal Tissues: Prostate): Epithelial cells scatted and moderate
- Immunoreactivity with frozen tissue sections (binding) ([2]; Normal Tissues: Prostate): 3/3
- Comments on staining ([2]; Normal Tissues: Skin): Diffuse minimal staining
- Immunoreactivity with frozen tissue sections (binding) ([2]; Normal Tissues: Skin): 2/3
- Comments on staining [2, 5]: Mucus superficial, diffuse minimal
- Immunoreactivity with frozen tissue sections (binding) [2, 5]: 3/3
- Immunoreactivity with frozen tissue sections (binding) ([2]; Normal Tissues: Spleen): 0
- Comments on staining ([2]; Normal Tissues: Stomach): Mucus superficial, diffuse mild
- Immunoreactivity with frozen tissue sections (binding) ([2]; Normal Tissues: Stomach): 2/3
- Comments on staining ([2]; Normal Tissues: Thymus): Epithelial cells, Hassall's corpuscle,
- Immunoreactivity with frozen tissue sections (binding) ([2]; Normal Tissues: Thymus): 3/3
- Comments on staining ([2]; Normal Tissues: Tonsil): Keratinised epithelium, membrane,
- Immunoreactivity with frozen tissue sections (binding) ([2]; Normal Tissues: Tonsil): 3/3
- Comments on staining [2, 6]: Epithelial cells transitional
- Immunoreactivity with frozen tissue sections (binding) [2, 6]: 2/2
- Comments on staining ([2]; Normal Tissues: Uterine cervix): Epithelial cells, membrane, diffuse
- Immunoreactivity with frozen tissue sections (binding) ([2]; Normal Tissues: Uterine cervix): 3/3
